The text below walks through data of publication PMC3097136.

Data set [1] has as its target tESR1 (estrogen receptor alpha DNA-binding domain) (Homo sapiens, UniProt P03372 185-250). The data set can be described thus: EMSA.
A further data set concerns the target T1, COUP-TFII (Nr2f2) (Mus musculus, UniProt P43135 1-414).
T1 sequence: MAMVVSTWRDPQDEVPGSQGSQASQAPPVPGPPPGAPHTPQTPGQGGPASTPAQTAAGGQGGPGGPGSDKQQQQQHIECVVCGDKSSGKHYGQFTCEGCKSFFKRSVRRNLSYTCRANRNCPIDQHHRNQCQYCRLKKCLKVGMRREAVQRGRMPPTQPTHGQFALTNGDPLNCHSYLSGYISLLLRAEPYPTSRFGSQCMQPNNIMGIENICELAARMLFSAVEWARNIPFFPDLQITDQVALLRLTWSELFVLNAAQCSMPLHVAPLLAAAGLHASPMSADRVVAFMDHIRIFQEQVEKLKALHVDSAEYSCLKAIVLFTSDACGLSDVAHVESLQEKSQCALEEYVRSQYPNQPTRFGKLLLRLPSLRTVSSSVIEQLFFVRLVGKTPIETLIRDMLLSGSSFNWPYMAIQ
The data set can be described thus: EMSA. Background: Mobility shift assays separate free from complexed probe on a gel.

In data set [2] the target is T2, COUP-TFI (Nr2f1) (Mus musculus, UniProt Q60632 1-422).
T2 sequence: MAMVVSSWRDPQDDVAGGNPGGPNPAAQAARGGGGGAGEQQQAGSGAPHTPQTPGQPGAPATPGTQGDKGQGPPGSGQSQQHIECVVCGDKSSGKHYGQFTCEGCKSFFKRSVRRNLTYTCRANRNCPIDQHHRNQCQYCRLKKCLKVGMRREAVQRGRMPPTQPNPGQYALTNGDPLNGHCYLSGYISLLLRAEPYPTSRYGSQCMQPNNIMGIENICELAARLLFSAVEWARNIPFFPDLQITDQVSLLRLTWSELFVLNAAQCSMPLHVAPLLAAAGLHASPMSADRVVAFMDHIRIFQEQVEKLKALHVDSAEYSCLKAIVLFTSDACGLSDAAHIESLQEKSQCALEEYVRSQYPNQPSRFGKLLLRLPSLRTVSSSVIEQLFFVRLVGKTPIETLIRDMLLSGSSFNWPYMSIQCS
The data set can be described thus: EMSA.

The target of data set [3] is T2, COUP-TFI (Nr2f1). Nature of the data set: competition.
The target in data set [4] is T2, COUP-TFI (Nr2f1). Nature of the data set: competition. The source holds these as a separate data set.

Sequence of tESR1 (estrogen receptor alpha DNA-binding domain) (P03372 185-250): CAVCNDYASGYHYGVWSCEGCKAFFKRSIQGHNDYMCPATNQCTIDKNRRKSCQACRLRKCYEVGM

B1: probe A (nPE2 NRBE) (dsDNA)
DNA 1: ATCCAAAGGTCAATTGAAATCTCTTT
DNA 2: AAAGAGATTTCAATTGACCTTTGGAT
Consider B1, for which the binding result (in data set [1]; in the data set with COUP-TFII (Nr2f2); with COUP-TFI (Nr2f1) [2]) was “binds” each time.

B2: cold probe A* (dsDNA)
DNA 1: ATCCAAGCTCGAATTGAAATCTCTTT
DNA 2: AAAGAGATTTCAATTCGAGCTTGGAT
For B2, the binding result in the data set with COUP-TFI (Nr2f1) [3] was “no binding”.

B3: cold probe A (dsDNA)
DNA 1: ATCCAAAGGTCAATTGAAATCTCTTT
DNA 2: AAAGAGATTTCAATTGACCTTTGGAT
Turning to B3, the binding result with COUP-TFI (Nr2f1) [4] is “binds”.

B4: probe A* (mutated NRBE) (dsDNA)
DNA 1: ATCCAAGCTCGAATTGAAATCTCTTT
DNA 2: AAAGAGATTTCAATTCGAGCTTGGAT
Turning to B4, the binding result (in data set [1]; in the data set with COUP-TFI (Nr2f1) [2]) was “no binding” each time.
